± gives the half width of the 95% confidence interval.
What was measured:
[1] = folding stability dG unfold from trypsin proteolysis; higher = more stable
In short: (§1)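 Sequencing followed digestion of designed mini-proteins with trypsin and chymotrypsin, each at 11 concentrations in threefold dilutions together with a no-protease condition. The mini-proteins were under 80 residues, had no cysteine, sat in a PA-tagged cDNA display construct, and were kept only if AlphaFold2 dimer inter-PAE was above 15. From the counts, Bayesian fitting gave K50, and unfolding free energy was derived against a sequence-predicted unfolded-state K50 and a shared folded-state K50, per protease or combined.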

[2] = folding stability dG unfold (combined trypsin and chymotrypsin); higher = more stable
In short: as §1

[3] = folding stability dG unfold from chymotrypsin proteolysis; higher = more stable
In short: as §1

Row | Sequence | folding stability dG unfold [1] [kcal/mol] | folding stability dG unfold [2] [kcal/mol] | folding stability dG unfold [3] [kcal/mol]
1 | SAGGPDLVPVARAVYRIDVPPDRTAEEVRREIEERLRPLGVRRVVVPVFYDPERGYLLVVAEVYRSPEESAG [r5_924_TrMRF] | 1.82 ± 0.036 | 2.06 ± 0.081 | 2.17 ± 0.1
2 | SAGGSAGGSAGGMVIVTFPDGSVREVEVLETEPDGTVVVAPPDRPVETLSGAGLTLTPVPSAGGSAGGSAGG [r7_823_JUSTAS] | 1.19 ± 0.071 | 0.59 ± 0.07 | -0.524 ± 0.13
3 | SAGGMLKFTDPKTGNEYTVTEYDPNTGVYLVTTTYPDGTTTTREFPGSLEDIVKHLEEEGYPTTVVGSAGGS [r16_748_JUSTAS] | 2.83 ± 0.12 | 3.24 ± 0.069 | 3.38 ± 0.1
4 | SAGGSAGGSAEITFNFPNPNGRPYPISIEIEKPKRNPDGKYRYDYKIKVSPGMPKEAAKDLFSAGGSAGGSA [r18_272_TrROS] | -0.849 ± 0.39 | -0.351 ± 0.2 | -0.314 ± 0.33
5 | SAGGSAMAIVEYDPDNRVRAIVYFPGEKRVALVEVDDDTATVTAVYDLSDDGVATYLDEATFEIGGSAGGSA [r2_60_TrMRF] | 0.896 ± 0.048 | 0.922 ± 0.046 | 0.87 ± 0.043
6 | SAGGMKTVIVRVRRDSPEVRKALEALRKAKPGEEVELTVKGKKIRIVKIEEVDGEYYVTVEIEEEEESAGGS [r16_404_TrROS_Hall] | 3.39 ± 0.074 | 3.75 ± 0.093 | 3.96 ± 0.062
7 | SAKIKVEIVEIDEKTGTIKIKAEIELPDGTKIELEATIKIEPVEVEKKEVTDKNGKKITVTKIKIKLPEKSA [r9_610_TrROS_Hall] | 2.05 ± 0.5 | 2.59 ± 0.71 | 2.52 ± 0.24
8 | SAGGSAGGSAGLDPDDPNYKIIPMTMEIKVEEYRMDPDGKMERQEQEHPIPILIIVPPGDSAGGSAGGSAGG [r17_523_TrROS] | 0.933 ± 0.074 | 0.365 ± 0.22 | -0.37 ± 0.28
9 | SAGGSAGGSAGGSGKLYYIVVELPNGEKISLLVESPEGAIELLEKLNYPVVKAEFFPISSAGGSAGGSAGGS [r4_213_TrMRF] | 2.29 ± 0.091 | 2.84 ± 0.12 | 3.09 ± 0.055
10 | SAGGSAGGSAGTIENVTVVGSKEFTAPGGVPTLIEYAKLPDGGTYTVTWTGDTTTTTVFPSAGGSAGGSAGG [r17_294_JUSTAS] | 0.414 ± 0.021 | 0.624 ± 0.069 | 0.675 ± 0.14
11 | SAGGSAGGSEEEVEIVDVEIEEKDGKLVIRAKIRNKETGELYEVTLVFDKETGELHLEVRKLPSAGGSAGGS [r12_14_TrROS_Hall] | 3.99 ± 0.097 | 3.95 ± 0.15 | 3.78 ± 0.13
12 | PANVTYEFELADGYRVRVTLNPETGTATVEVEPVPERPPVAPVFIPRTLPEEEREALRRAAEEAGLEVVVGS [r1_242_TrMRF] | 2.42 ± 0.036 | 3.06 ± 0.054 | 3.348 ± 0.031
13 | SLLENLKIEEIKEYTLPDGSPAIVIRFGDYTIVFNPGTGELRIYKGDKIIRTITIPFPIPDPNKPEDLAASA [r9_1065_TrMRF] | 3.22 ± 0.16 | 3.28 ± 0.084 | 3.405 ± 0.034
14 | SVRIHGPDGQWFPVDDIEFDPNNNKFTFKFPGGKHKFPLPPGWQIEIDKDNAWIRVRPMPPPPPEDKEAKSA [r9_551_TrROS] | 2.88 ± 0.24 | 2.68 ± 0.34 | 2.25 ± 0.061
15 | SAGGSAGGSAGGPNLQIMVMQTDNSLTVMIYLPEGWVIVYKITPMKIELEIMPLKDPDDSAGGSAGGSAGGS [r10_1169_TrROS] | 3.98 ± 0.32 | 4.89 ± 0.28 | 5.17 ± 0.32
16 | SAGGSAGGSAGGSMYTAEPSVVLLPDGTLRTVTRYTFPDGSVTSETATSPLSPDDPALLSAGGSAGGSAGGS [r4_144_JUSTAS] | -0.0533 ± 0.1 | 0.637 ± 0.087 | 0.949 ± 0.099
17 | SAGGSAGGSKPPPTVEIEITLEDGTVLRIRVTPDRIEIENLETGKRFTFPPGATIEIEVRKLPSAGGSAGGS [r12_227_TrROS_Hall] | 3.95 ± 0.82 | 4.19 ± 0.56 | 3.73 ± 0.49

— the supplement of paper PMC12764529
